According to patent CN116836274A (DONGGUAN PENGZHI BIOTECHNOLOGY CO LTD, dated 2023):

T1: 血清淀粉样蛋白A (Serum amyloid A, SAA), 购自Yashraj biotechnology limited, 货号FRSAA-61 (UniProt P0DJI8 19-122, limits assumed)
T1 construct: Bought antigen
T1 sequence (looked up): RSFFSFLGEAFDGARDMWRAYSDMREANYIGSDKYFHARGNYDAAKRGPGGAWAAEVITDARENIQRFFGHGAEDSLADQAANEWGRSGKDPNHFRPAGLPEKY


Experiments:
[1] = biological target: 血清淀粉样蛋白A (Serum amyloid A, SAA), 购自Yashraj biotechnology limited, 货号FRSAA-61 (UniProt P0DJI8); test: biosensor with AMC sensors, antibody captured at 10 ug/ml, SAA in a dilution series in PBST
[2] = biological target: T1, 血清淀粉样蛋白A (Serum amyloid A, SAA), …; test: as above

Molecule	Kd [1] [nM]	koff [1] [s⁻¹]	kon [1] [M⁻¹ s⁻¹]	Kd [2] [nM]	koff [2] [s⁻¹]	kon [2] [M⁻¹ s⁻¹]
对照 (antibody)	9.01	0.000219	24300	–	–	–
Anti-SAA-11A4mut1 (antibody, mouse IgG1, kappa, V domains shown) VH: QVQLQQSGAELVRPGVSVKISCKGSGYTFTDYAMHWVKQSHAKSLEWIGVINTYYGDASYNQKFKGKATMTEDKSSSTVYMELARLTSEDSAIYYCARGSSIMITSWFAYWGQGTLVTVSA VL: DIQMTQSPASLSASVGETVTITCRASENIYSYLAWYQQKQGKSPQLLVYNAKTLAEGVPSRFSGSGSGTQFSLKINSLQPEDFGSYYCQHHYGTPLTFGTGTKLELKR	–	–	–	0.0322	1.12e-06	34800

Continued, values first:

Kd [1] [nM]	koff [1] [s⁻¹]	kon [1] [M⁻¹ s⁻¹]	Kd [2] [nM]	koff [2] [s⁻¹]	kon [2] [M⁻¹ s⁻¹]	Molecule
–	–	–	0.0386	1.3e-06	33700	Anti-SAA-11A4mut3 (antibody, V domains shown) VH: QVQLQQSGAELVRPGVSVKISCKGSGYTFTDYAMHWVKQSHAKSLEWIGVINTYYGDASYNQKFKGKATMTEDKSSSTVYMELARLTSEDSAIYYCARGSSIMITSWFAYWGQGTLVTVSA VL: DIQMTQSPASLSASVGETVTITCRASENIYSYLAWYQQKQGKSPQLLVYNAKTLAEGVPSRFSGSGSGTQFSLKINSLQPEDFGSYYCQHHYGTPITFGTGTKLELKR
–	–	–	0.827	3.05e-05	36900	Anti-SAA-11A4mut2 (antibody, mouse IgG1, kappa, V domains shown) VH: QVQLQQSGAELVRPGVSVKISCKGSGYTFTDYAMHWVKQSHAKSLEWIGVINTYYGDASYNQKFKGKATMTEDKSSSTVYMELARLTSEDSAIYYCARGSSLMITSWFAYWGQGTLVTVSA VL: DIQMTQSPASLSASVGETVTITCRASENIYSYLAWYQQKQGKSPQLLVYNAKTLAEGVPSRFSGSGSGTQFSLKINSLQPEDFGSYYCQHHYGTPLTFGTGTKLELKR
